Drawing on article PMC3906829, this text covers stoichiometry N for 1 substance.

The assay deals with membrane-embedded MraY from Aquifex aeolicus used for structure-guided disulfide cross-bridge experiments (Aquifex aeolicus) (UniProt O66465). In words: cross-linking.

For “membrane-embedded MraY from Aquifex aeolicus used for structure-guided disulfide cross-bridge experiments (from UniProt O66465 1-359) (enzyme)”, the stoichiometry N (commonly a count of units in the complex or per binding partner) was found to be 2.
